The target in series [1] is T1, E. coli MinCD copolymeric filaments (pre-formed) (E. coli, UniProt P18196;P0AEZ3).
T1 sequence 1: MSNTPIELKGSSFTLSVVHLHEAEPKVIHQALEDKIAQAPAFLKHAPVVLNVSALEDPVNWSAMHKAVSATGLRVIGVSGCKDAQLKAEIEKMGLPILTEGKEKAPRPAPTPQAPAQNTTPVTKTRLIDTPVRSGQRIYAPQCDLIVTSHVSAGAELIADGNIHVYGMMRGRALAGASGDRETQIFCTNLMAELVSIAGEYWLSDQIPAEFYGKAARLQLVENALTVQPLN
T1 sequence 2: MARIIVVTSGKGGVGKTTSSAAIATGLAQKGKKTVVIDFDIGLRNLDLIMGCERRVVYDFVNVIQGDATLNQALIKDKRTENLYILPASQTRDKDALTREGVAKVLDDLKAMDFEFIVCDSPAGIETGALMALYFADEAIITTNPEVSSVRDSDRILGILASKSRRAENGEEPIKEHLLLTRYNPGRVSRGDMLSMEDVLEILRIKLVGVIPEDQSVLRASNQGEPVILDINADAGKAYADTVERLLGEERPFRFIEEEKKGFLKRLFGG
Nature of the series: electron cryotomography of decorated liposomes.

Series [2] concerns the molecule itself. Nature of the series: co-sedimentation.
The target in series [3] is T2, E. coli MinD, full-length, untagged (E. coli, UniProt P0AEZ3 1-270).
T2 sequence: T1 sequence 2
Nature of the series: 90° angle light scattering.

B1: E. coli FtsZ (natural protein)
chain: MFEPMELTNDAVIKVIGVGGGGGNAVEHMVRERIEGVEFFAVNTDAQALRKTAVGQTIQIGSGITKGLGAGANPEVGRNAADEDRDALRAALEGADMVFIAAGMGGGTGTGAAPVVAEVAKDLGILTVAVVTKPFNFEGKKRMAFAEQGITELSKHVDSLITIPNDKLLKVLGRGISLLDAFGAANDVLKGAVQGIAELITRPGLMNVDFADVRTVMSEMGYAMMGSGVASGEDRAEEAAEMAISSPLLEDIDLSGARGVLVNITAGFDLRLDEFETVGNTIRAFASDNATVVIGTSLDPDMNDELRVTVVATGIGMDKRPEITLVTNKQVQQPVMDRYQQHGMAPLTQEQKPVAKVVNDNAPQTAKEPDYLDIPAFLRKQAD
Regarding B1, the binding result in series [1] and in series [2] was “binds” in each case.

B2: E. coli MinE, full length (natural protein)
chain: MALLDFFLSRKKNTANIAKERLQIIVAERRRSDAEPHYLPQLRKDILEVICKYVQIDPEMVTVQLEQKDGDISILELNVTLPEAEELK
In the case of B2, in series [3], the binding result is reported as “binds”.

The values above are taken from publication PMC4338524 (Nature communications, 2014).
